We go through 32 sequences from the Immune Epitope Database (IEDB).

As a reminder, the Kd is a measure of binding affinity in units of concentration.

A value given as a limit tells only on which side of the number the result lay.

One test has as its target HLA-A*02:06. The test is described as follows: IEDB peptide-MHC binding, purified MHC/competitive/radioactivity; filed as Kd, often an IC50 or EC50 that approximates it; ≥ and ≤ were set here for values at or beyond the usual limits of such assays.
The target of the next test is HLA-A*02:02. The test is described as above.
The next test deals with HLA-A*02:03. The test is described as above.
Another test has as its target HLA-A*11:01. The test is described as follows: IEDB peptide-MHC binding, purified MHC/direct/fluorescence; filed as Kd, often an IC50 or EC50 that approximates it; ≥ and ≤ were set here for values at or beyond the usual limits of such assays. The settings on record: source organism: Mycobacterium tuberculosis.
The next test has as its target HLA-A*01:01. Described as above.
For the next test, the target named is HLA-A*03:01. The test is described as above. The settings on record: source organism: Mycobacterium tuberculosis F11.
In the next test the target is HLA-A*69:01. The test is described as above. The settings on record: source organism: Escherichia coli O157:H7.
A further test concerns the target HLA-A*02:01. Described as above. The conditions noted are these: source organism: Escherichia coli O157:H7.
A further test addresses HLA-B*07:02. The description is as above. The conditions noted are these: source organism: Mycobacterium tuberculosis F11.
Where [1] appears, read: source organism: Vaccinia virus WR.
Setting [2] is: source organism: SARS coronavirus Tor2.
Where [3] appears, read: source organism: Lymphocytic choriomeningitis virus (strain Armstrong).
Where [4] appears, read: source organism: Lassa virus Josiah.

In the case of YQSFLFWFL, the Kd was 40.1 nM with HLA-A*02:06 (setting [1]), 0.381 nM with HLA-A*02:02 (setting [1]) and 2.5 nM in the test with HLA-A*02:03 (setting [1]).

As for RTMFLFVFR, in the test with HLA-A*11:01, the Kd was 94.6 nM.

In the case of CASSSDWFY, the dissociation constant (Kd) with HLA-A*01:01 (source organism: Tobacco leaf curl Zimbabwe virus) came to 2.1 nM.

Regarding YLLGLSAIM, the Kd with HLA-A*02:06 (setting [2]) is 3.22 nM; with HLA-A*02:02 (setting [2]) it was 1.69 nM; with HLA-A*02:03 (setting [2]) it was 37.1 nM.

Consider KTEHCDDFM, for which the results for the Kd with HLA-A*02:06 (setting [1]), in the test with HLA-A*02:02 (setting [1]) and in the test with HLA-A*02:03 (setting [1]) were 2520 nM, 6500 nM and 18100 nM, respectively.

As for IIDLLLPST, the Kd is 1120 nM with HLA-A*02:06 (setting [1]), 15100 nM with HLA-A*02:02 (setting [1]) and 10300 nM with HLA-A*02:03 (setting [1]).

Take SIDHCSSFI: the Kd stood at 199 nM in the test with HLA-A*02:06 (setting [1]), 631 nM in the test with HLA-A*02:02 (setting [1]) and 12.9 nM with HLA-A*02:03 (setting [1]).

Regarding AVNPGGNIY, the equilibrium dissociation constant (Kd) with HLA-A*01:01 (source organism: Mycobacterium tuberculosis F11) was 3000 nM; in the test with HLA-A*03:01, ≥ 20000 nM.

Regarding DIDLLFNEKL, the figures for the Kd with HLA-A*02:06 (setting [1]), with HLA-A*02:02 (setting [1]) and with HLA-A*02:03 (setting [1]) were ≥ 25700 nM, 11200 nM and ≥ 26700 nM, respectively.

Consider TIEDDKIVTM, for which the Kd with HLA-A*02:06 (setting [1]) is ≥ 26100 nM; with HLA-A*02:02 (setting [1]), 17000 nM; with HLA-A*02:03 (setting [1]), 17200 nM.

For SLALKNSQA, the Kd with HLA-A*02:06 (setting [1]) is 19000 nM; with HLA-A*02:02 (setting [1]), 662 nM; with HLA-A*02:03 (setting [1]), 459 nM.

For the sequence ILANERYRSA, the results for the Kd with HLA-A*02:06 (setting [1]), in the test with HLA-A*02:02 (setting [1]) and with HLA-A*02:03 (setting [1]) were 7800 nM, 104 nM and 18.3 nM, respectively.

For PIPMSRLFM, the Kd was ≥ 31200 nM in the test with HLA-A*02:06 (setting [1]), 3890 nM in the test with HLA-A*02:02 (setting [1]) and 9130 nM with HLA-A*02:03 (setting [1]).

Take AVLSEYETMV: the equilibrium dissociation constant (Kd) with HLA-A*02:06 (setting [1]) was 23.6 nM; with HLA-A*02:02 (setting [1]), 0.758 nM; with HLA-A*02:03 (setting [1]), 1.47 nM.

On to EIARIENEM, for which the Kd with HLA-A*02:06 (setting [1]) is ≥ 77100 nM; with HLA-A*02:02 (setting [1]) it was 335 nM; with HLA-A*02:03 (setting [1]) it was ≥ 47900 nM.

NMINKLYGYA: the Kd with HLA-A*02:06 (setting [1]) is 137 nM; with HLA-A*02:02 (setting [1]), 1.57 nM; with HLA-A*02:03 (setting [1]), 0.438 nM.

As to FVSTMPVET, the Kd with HLA-A*02:06 (setting [1]) worked out at 1540 nM; in the test with HLA-A*02:02 (setting [1]), 1220 nM; with HLA-A*02:03 (setting [1]) it was 391 nM.

TIDNIVTSL: the dissociation constant (Kd) with HLA-A*02:06 (setting [1]) turned out to be 2730 nM; with HLA-A*02:02 (setting [1]), 178 nM; with HLA-A*02:03 (setting [1]), 1040 nM.

In the case of RVKQWVMDT, the equilibrium dissociation constant (Kd) in the test with HLA-A*02:06 (setting [1]) was determined as 13500 nM; with HLA-A*02:02 (setting [1]), 3630 nM; with HLA-A*02:03 (setting [1]), 3.61 nM.

For ITDVQDMDP, the equilibrium dissociation constant (Kd) with HLA-A*01:01 (source organism: Homo sapiens) was found to be 12300 nM.

In the case of LAEYIRHRNT, the dissociation constant Kd with HLA-A*02:06 (setting [1]) is ≥ 69800 nM; in the test with HLA-A*02:02 (setting [1]), ≥ 36100 nM; with HLA-A*02:03 (setting [1]) it was 14000 nM.

Regarding IILFQNNDI, the figures for the dissociation constant Kd with HLA-A*02:06 (setting [1]), in the test with HLA-A*02:02 (setting [1]) and with HLA-A*02:03 (setting [1]) were 12000 nM, 11300 nM and ≥ 52300 nM, respectively.

As for FLFLAWIML, the equilibrium dissociation constant (Kd) turned out to be 36.7 nM with HLA-A*02:06 (setting [2]), 1.81 nM with HLA-A*02:02 (setting [2]) and 37.7 nM with HLA-A*02:03 (setting [2]).

Regarding SMSQELAELL, the values for the dissociation constant (Kd) with HLA-A*02:06 (setting [1]), with HLA-A*02:02 (setting [1]) and with HLA-A*02:03 (setting [1]) were 474 nM, 6.19 nM and 54.5 nM, respectively.

As to ALEKGIKDV, the equilibrium dissociation constant (Kd) with HLA-A*69:01 was ≥ 20000 nM; with HLA-A*02:01 it was 6000 nM.

For LNMFVSDQV, the dissociation constant Kd was 4810 nM with HLA-A*02:06 (setting [3]), 17.6 nM with HLA-A*02:02 (setting [3]) and 879 nM with HLA-A*02:03 (setting [3]).

For PVIVPDIKL, the values for the equilibrium dissociation constant (Kd) with HLA-A*02:06 (setting [1]), with HLA-A*02:02 (setting [1]) and in the test with HLA-A*02:03 (setting [1]) were ≥ 51200 nM, ≥ 41200 nM and ≥ 32700 nM, respectively.

Regarding ELKHGLLDSI, the dissociation constant Kd in the test with HLA-A*02:06 (setting [1]) was 1340 nM; with HLA-A*02:02 (setting [1]), 540 nM; in the test with HLA-A*02:03 (setting [1]) it was 54.8 nM.

Turning to ILHNIYRLFT, the Kd in the test with HLA-A*02:06 (setting [1]) is 1210 nM; with HLA-A*02:02 (setting [1]), 125 nM; in the test with HLA-A*02:03 (setting [1]), 10.7 nM.

On to YCNYSKFWYL, for which the Kd worked out at 1060 nM with HLA-A*02:06 (setting [3]), 1110 nM with HLA-A*02:02 (setting [3]) and 9630 nM with HLA-A*02:03 (setting [3]).

Take APEFVTAAA: the equilibrium dissociation constant (Kd) in the test with HLA-B*07:02 was found to be 933 nM.

For FSTSFYLISI, the Kd with HLA-A*02:06 (setting [4]) turned out to be 9.23 nM; with HLA-A*02:02 (setting [4]) it was 2.13 nM; with HLA-A*02:03 (setting [4]) it was 52.6 nM.
